In PMC11879086, “Identification and characterization of a human MORC2 DNA binding region that is required for gene silencing” (Nucleic Acids Research, 2024):

Assays:
[1] = target: T1, MORC2 dephosphorylated (wild-type) (Homo sapiens, UniProt Q9Y6X9 1-1032); experiment: fluorescence anisotropy; apo; FA/EMSA: 50 mM NaCl, 3 mM MgCl2, 20 mM Na-HEPES pH 7.4, 1 mM TCEP, 10% glycerol, 0.025 mM ZnCl2, 50 ug/ml BSA, room temperature; 1 nM nucleic acid (FA) or 20 nM DNA (EMSA); settings: protein: recombinant; tags: tag removed by TEV; chain copies: 2; label: 5'-6-FAM; blunt
T1 sequence: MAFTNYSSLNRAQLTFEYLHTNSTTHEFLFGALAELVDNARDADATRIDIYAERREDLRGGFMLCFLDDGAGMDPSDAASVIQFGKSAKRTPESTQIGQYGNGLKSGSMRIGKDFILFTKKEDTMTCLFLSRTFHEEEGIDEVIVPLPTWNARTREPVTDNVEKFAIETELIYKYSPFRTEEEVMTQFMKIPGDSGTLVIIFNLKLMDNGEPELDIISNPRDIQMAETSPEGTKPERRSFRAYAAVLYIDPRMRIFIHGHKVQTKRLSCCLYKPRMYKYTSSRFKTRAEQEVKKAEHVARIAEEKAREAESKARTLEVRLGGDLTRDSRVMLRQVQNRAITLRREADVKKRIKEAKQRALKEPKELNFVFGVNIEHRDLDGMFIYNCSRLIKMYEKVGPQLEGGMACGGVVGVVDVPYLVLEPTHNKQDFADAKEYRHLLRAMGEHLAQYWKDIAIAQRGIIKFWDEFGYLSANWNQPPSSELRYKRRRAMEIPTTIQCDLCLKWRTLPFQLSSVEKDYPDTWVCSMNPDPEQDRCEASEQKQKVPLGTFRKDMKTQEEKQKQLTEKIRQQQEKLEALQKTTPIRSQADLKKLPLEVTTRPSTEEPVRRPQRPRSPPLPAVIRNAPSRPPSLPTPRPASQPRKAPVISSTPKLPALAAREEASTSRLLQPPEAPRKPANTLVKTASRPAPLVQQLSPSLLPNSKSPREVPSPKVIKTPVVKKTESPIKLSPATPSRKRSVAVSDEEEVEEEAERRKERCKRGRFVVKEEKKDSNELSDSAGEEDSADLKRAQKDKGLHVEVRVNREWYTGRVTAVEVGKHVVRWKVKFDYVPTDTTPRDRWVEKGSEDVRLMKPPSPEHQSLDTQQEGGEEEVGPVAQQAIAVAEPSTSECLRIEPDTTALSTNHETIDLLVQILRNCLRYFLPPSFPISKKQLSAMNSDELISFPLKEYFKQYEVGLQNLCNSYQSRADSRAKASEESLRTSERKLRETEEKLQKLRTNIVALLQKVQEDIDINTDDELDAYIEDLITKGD

MORC2 1-603 = target: T2, MORC2 1-603 (Homo sapiens, UniProt Q9Y6X9 1-603); experiment: as above; settings: protein: recombinant; tags: tag removed by TEV; label: 5'-6-FAM; blunt
T2 sequence: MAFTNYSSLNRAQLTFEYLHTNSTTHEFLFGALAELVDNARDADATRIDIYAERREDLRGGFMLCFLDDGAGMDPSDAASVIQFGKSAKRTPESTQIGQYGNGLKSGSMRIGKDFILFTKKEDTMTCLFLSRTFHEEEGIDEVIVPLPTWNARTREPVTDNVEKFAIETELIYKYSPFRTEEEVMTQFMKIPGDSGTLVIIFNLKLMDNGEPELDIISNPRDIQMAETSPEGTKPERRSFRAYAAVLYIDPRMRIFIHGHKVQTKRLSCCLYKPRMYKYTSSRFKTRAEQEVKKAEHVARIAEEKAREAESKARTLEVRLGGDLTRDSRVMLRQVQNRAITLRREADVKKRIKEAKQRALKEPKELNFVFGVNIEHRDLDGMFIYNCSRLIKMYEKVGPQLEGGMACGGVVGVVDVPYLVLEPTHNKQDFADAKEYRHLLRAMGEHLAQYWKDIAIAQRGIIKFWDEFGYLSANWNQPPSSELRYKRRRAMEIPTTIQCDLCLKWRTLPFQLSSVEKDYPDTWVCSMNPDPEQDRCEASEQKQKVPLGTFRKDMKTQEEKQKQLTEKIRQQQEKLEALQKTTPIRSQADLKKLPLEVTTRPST

B1: Random 35mer dsDNA (dsDNA)
DNA 1: ATAGGGTCCATCAGAATTCGGATGAACTCGGTGTG
DNA 2: CACACCGAGTTCATCCGAATTCTGATGGACCCTAT
B1 was tested, and the Kd [1] was 17 ± 4 nM and the Kd (MORC2 1-603) was 446 ± 119 nM.
